# Data taken from patent US20190032032A1.
# Target: HSP90 (heat shock protein 90) (human (endogenous in the human Huh7.5-derived JFH-1 cell line)) (UniProt P07900)
# Experiment: cell-based or functional assay
substance,measurement,value
"PEP1 peptide (hTERT-derived 16mer peptide, 611-…-626)","mean 50% inhibitory concentration (IC50) of HIV-1 viral particle production in MT-4 cells, p24 ELISA",0.85 µM
